# Reference: article PMC5113752 (Protein expression and purification, 2015)
# Molecular target: the molecule itself
# Test: cross-linking
protein,measurement,value
"p7 viroporin from hepatitis C virus strain H77 genotype 1a, in proteoliposomes (natural protein, hepatitis C virus genotype 1a strain H77, UniProt P27958 747-809, looked up) ALENLVILNAASLAGTHGLVSFLVFFCFAWYLKGRWVPGAVYALYGMWPLLLLLLALPQRAYA",stoichiometry N,6
